Publication PMC11190223, “Identification of sulfakinin receptor regulating feeding behavior and hemolymph trehalose homeostasis in the silkworm, Bombyx mori” (Scientific Reports, 2024)
Where no end group is shown, it is not given here. [ ]: non-standard residue; d: D form. sY = N[C@@H](Cc1ccc(OS(=O)(=O)O)cc1)C(=O)O

Experiments:
[1] = target: T1, BNGR-A9 expressed in BmN cells (pIZT-BNGR-A9) (Bombyx mori) (UniProt B3XXM2)
T1 sequence: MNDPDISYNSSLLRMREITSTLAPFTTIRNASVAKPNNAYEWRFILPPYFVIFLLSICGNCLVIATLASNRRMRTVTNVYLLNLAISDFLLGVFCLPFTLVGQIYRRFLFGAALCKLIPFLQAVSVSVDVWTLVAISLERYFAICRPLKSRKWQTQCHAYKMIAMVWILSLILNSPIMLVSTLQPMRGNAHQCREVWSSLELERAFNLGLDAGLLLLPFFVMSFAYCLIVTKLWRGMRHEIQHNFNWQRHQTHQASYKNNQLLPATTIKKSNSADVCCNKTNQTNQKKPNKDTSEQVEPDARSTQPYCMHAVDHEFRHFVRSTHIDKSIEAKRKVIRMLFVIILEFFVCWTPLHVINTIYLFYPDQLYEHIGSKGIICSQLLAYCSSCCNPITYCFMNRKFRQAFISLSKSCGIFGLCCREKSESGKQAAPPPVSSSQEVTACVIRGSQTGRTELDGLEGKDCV

[2] = target: T2, Flag-BNGR-A9 (Bombyx mori neuropeptide G protein-coupled receptor A9) expressed in HEK293 cells (Bombyx mori) (UniProt B3XXM2)
T2 sequence: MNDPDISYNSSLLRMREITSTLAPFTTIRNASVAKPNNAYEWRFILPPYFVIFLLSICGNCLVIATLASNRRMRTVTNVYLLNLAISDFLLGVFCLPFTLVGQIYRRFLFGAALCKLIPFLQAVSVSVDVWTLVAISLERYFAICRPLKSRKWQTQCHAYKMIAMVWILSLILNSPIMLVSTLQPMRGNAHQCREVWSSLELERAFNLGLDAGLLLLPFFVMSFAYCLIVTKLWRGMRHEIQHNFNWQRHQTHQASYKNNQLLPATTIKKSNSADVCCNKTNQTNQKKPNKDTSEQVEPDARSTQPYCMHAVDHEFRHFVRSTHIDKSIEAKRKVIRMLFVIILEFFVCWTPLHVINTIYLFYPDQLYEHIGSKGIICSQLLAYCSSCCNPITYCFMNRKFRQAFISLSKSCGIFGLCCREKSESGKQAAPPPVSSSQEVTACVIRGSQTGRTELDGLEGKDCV

[3] = target: T1, BNGR-A9 expressed in BmN cells (pIZT-BNGR-A9) (Bombyx mori); remark: listed apart in the source
[4] = target: T2, Flag-BNGR-A9 (Bombyx mori neuropeptide G protein-coupled receptor A9) expressed in HEK293 cells (Bombyx mori); remark: listed apart in the source

B1: Bombyx mori sulfated-sulfakinin (peptide)
peptide: GDDTFDD[sY]GHLRF-NH2
modifications: N-terminus assumed
SMILES: CC(C)C[C@H](NC(=O)[C@H](Cc1c[nH]cn1)NC(=O)CNC(=O)[C@H](Cc1ccc(OS(=O)(=O)O)cc1)NC(=O)[C@H](CC(=O)O)NC(=O)[C@H](CC(=O)O)NC(=O)[C@H](Cc1ccccc1)NC(=O)[C@@H](NC(=O)[C@H](CC(=O)O)NC(=O)[C@H](CC(=O)O)NC(=O)CN)[C@@H](C)O)C(=O)N[C@@H](CCCNC(=N)N)C(=O)N[C@@H](Cc1ccccc1)C(N)=O
Work on B1 yielded a CRE-driven luciferase reporter, dose-response, BmN cells stably expressing BNGR-A9 [1] of 60 nM, a CRE-driven luciferase reporter, dose-response, HEK293 cells stably expressing BNGR-A9 [2] of 73.3 nM and a Fura-2 AM Ca2+ mobilization, dose-response, BmN cells expressing BNGR-A9 [3] of 51.4 nM. It also gave a Fura-2 AM Ca2+ mobilization, dose-response 1 nM to 1 uM, HEK293 cells stably expressing BNGR-A9 [4] of 29 nM.
